Patent US20150218281A1 (Ablynx, published 2015)
Residue numbers refer to the chain shown, from its start. Read-outs that look alike come from different tables or passages of the source. Values belong to the binder of their own block, whether it stands above or below them.

Columns and labels:
[1] = molecular target: T1, recombinant human OX40L (extracellular domain, R&D Systems) (human, UniProt P23510 51-183); experiment: cell-based or functional assay
T1 sequence: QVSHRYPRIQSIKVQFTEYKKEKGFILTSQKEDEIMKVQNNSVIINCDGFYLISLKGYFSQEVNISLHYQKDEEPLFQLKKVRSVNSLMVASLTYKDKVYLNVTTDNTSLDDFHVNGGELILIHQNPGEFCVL

[2] = molecular target: T2, biotinylated hOX40L (R&D Systems, biotinylated in house) (human, UniProt P23510 51-183, biotinylated with Sulfo-NHS-LC-Biotin, sites not stated); experiment: hOX40L/hOX40 AlphaScreen, assay 3, native
T2 construct: same bought protein as m10, biotinylated; also called biotinylated OX40L
T2 sequence: T1 sequence
Experimental: (§1) Next, streptavidin donor beads were added and incubated for an additional 1 hour. Fluorescence was measured by reading plates on the EnVision Multilabel Plate Reader using an excitation wavelength of 680 nm and an emission wavelength of 520 nm.
(§2) In the TSA assay, Nanobodies were diluted to a concentration of 0.2 mg/ml and melting temperature (Tm) was determined at different pH by stepwise increase in temperature in presence of Sypro Orange, a dye that binds to […] residues that become exposed upon unfolding of the protein, using the Lightcycler (Roche) for detection. […] In SEC analysis, the Nanobodies were analyzed on a Phenomenex matrix to allow detection of multimers, aggregates or ‘stickyness’.

[3] = molecular target: T2, biotinylated hOX40L (R&D Systems, …); experiment: hOX40L/hOX40 AlphaScreen, assay 1, native
Experimental: Next, streptavidin donor beads were added and incubated for an additional 1 hour. Fluorescence was measured by reading plates on the EnVision Multilabel Plate Reader using an excitation wavelength of 680 nm and an emission wavelength of 520 nm. […]

[4] = molecular target: T2, biotinylated hOX40L (R&D Systems, …); experiment: hOX40L/hOX40 AlphaScreen, assay 3, heated at Tm+10 C
Experimental: as §1, §2

[5] = molecular target: T2, biotinylated hOX40L (R&D Systems, …); experiment: hOX40L/hOX40 AlphaScreen, assay 2, heated at Tm+10 C
Experimental: as §1, §2

[6] = molecular target: T2, biotinylated hOX40L (R&D Systems, …); experiment: hOX40L/hOX40 AlphaScreen, assay 2, native
Experimental: as §1, §2

[7] = molecular target: T2, biotinylated hOX40L (R&D Systems, …); experiment: hOX40L/hOX40 AlphaScreen, native sample
Experimental: as §1, §2

[8] = molecular target: T2, biotinylated hOX40L (R&D Systems, …); experiment: hOX40L/hOX40 AlphaScreen, sample heated 1 min at Tm+10 C
Experimental: as §1, §2

[9] = molecular target: T1, recombinant human OX40L (extracellular …); experiment: cell-based or functional assay; remark: listed apart in the source

B2: OX40L040 (VHH, not shown: small tags and cut ends)
VHH: DVQLVESGGGLVQPGGSLRLSCAASRSIGRLDRMGWYRHRTGEPRELVATITGGSSINYGDFVKGRFTISRDNSKNTVYLQMNSLRPEDTAVYYCNFNKYVTSRDTWGQGTLVTVSS
IC50, T cell assay with rec. hOX40L [1]: 9 nM | IC50 [2]: 0.102 nM | IC50 [3]: 0.046 nM | IC50 [5]: 0.084 nM | IC50 [4]: 0.082 nM | IC50 [6]: 0.092 nM

B4: OX40L053 (VHH, not shown: small tags and cut ends)
VHH: B2 VHH with R71I
IC50 [2]: 0.118 nM | IC50 [4]: 0.126 nM

B6: OX40L028 (VHH, not shown: small tags and cut ends)
VHH: DVQLVESGGGLVQPGGSLRLSCAASGRTFSSIYAKGWFRQAPGKEREFVAAISRSGRSTSYADSVKGRFTISRDNAKNTVYLQMNSLRPEDTAVYYCAAVGGATTVTASEWDYWGLGTLVTVSS
IC50 [7]: 0.07 nM | IC50 [8]: 0.07 nM | IC50, T cell assay with rec. hOX40L [9]: 2.3 nM

B7: OX40L039 (VHH, not shown: small tags and cut ends)
VHH: B6 VHH with A76S, L116Q
IC50 [7]: 0.05 nM | IC50 [8]: 0.05 nM | IC50, T cell assay with rec. hOX40L [9]: 1.6 nM

Continued by falling IC50 [2], values first:

IC50, T cell assay with rec. hOX40L [1]: 11 nM | IC50 [2]: 0.143 nM | IC50 [3]: 0.076 nM | IC50 [4]: 0.143 nM
B1: OX40L030 (VHH, not shown: small tags and cut ends)
VHH: B2 VHH with P14A, R71I, S74A, S84N, R86K, L112Q

IC50 [2]: 0.091 nM | IC50 [4]: 0.106 nM
B5: OX40L055 (VHH, not shown: small tags and cut ends)
VHH: B2 VHH with S84N

IC50 [2]: 0.079 nM | IC50 [4]: 0.094 nM
B3: OX40L054 (VHH, not shown: small tags and cut ends)
VHH: B2 VHH with S74A
